Laboratory results: the Human Domainome abundance scans (Beltran et al. 2025)
± gives the uncertainty stated by the source.

B1: Pituitary-specific positive transcription factor 1, residues 130 to 198; numbered along this chain, P28069 (parent)
chain: RELEKFANEFKVRRIKLGYTQTNVGEALAAVHGSEFSQTTICRFENLQLSFKNACKLKAILSKWLEEAE

Variants of: B1
Assay: abundance fitness (aPCA) (normalised: wild type 0, dead -1); higher = more abundant; growth selection in yeast, the domain comes from the species named
Settings: Homo sapiens
In the case of RELEKFANEFKVRRIKLGYTQTNVGEALAAVHGSEFSQTTICRPENLQLSFKNACKLKAILSKWLEEAE [F44P], the abundance fitness is reported as -0.936 ± 0.19.
Variant RELEKFANEFKVRRKKLGYTQTNVGEALAAVHGSEFSQTTICRFENLQLSFKNACKLKAILSKWLEEAE [I15K] has an abundance fitness of -0.054 ± 0.073.
RELEKFANEFKVRRIKLGYTQTNVGEALAAVHGDEFSQTTICRFENLQLSFKNACKLKAILSKWLEEAE [S34D] showed an abundance fitness of -0.015 ± 0.14.
Work on RELEKFANEFKVRRIKLGYTQTNVGEALAAVHGSEFEQTTICRFENLQLSFKNACKLKAILSKWLEEAE [S37E] yielded an abundance fitness of -0.568 ± 0.13.
In the case of RELEKFANEFKVRRIKLGYTQTNVGEALAAVHGSEFSQTTICRFENLQLSFKNACKLKAILSYWLEEAE [K63Y], the abundance fitness is reported as -0.508 ± 0.16.
Variant RELEKFANEFEVRRIKLGYTQTNVGEALAAVHGSEFSQTTICRFENLQLSFKNACKLKAILSKWLEEAE [K11E] has an abundance fitness of -0.786 ± 0.15.
RELEKFANEFKVRRIKLGYTQTNVGEALAAVHGSEFSQTTIGRFENLQLSFKNACKLKAILSKWLEEAE [C42G] showed an abundance fitness of -0.029 ± 0.064.
Variant RELEKFANEFKVRRIKLGYTQTNVGEALAAVHGSEFSQTTICRFFNLQLSFKNACKLKAILSKWLEEAE [E45F] has an abundance fitness of -0.878 ± 0.17.
In the case of RELEKFANEFKVRRIKLGYTQTNVGEALAANHGSEFSQTTICRFENLQLSFKNACKLKAILSKWLEEAE [V31N], the abundance fitness is reported as -0.389 ± 0.078.
In the case of IELEKFANEFKVRRIKLGYTQTNVGEALAAVHGSEFSQTTICRFENLQLSFKNACKLKAILSKWLEEAE [R1I], the abundance fitness is reported as -0.508 ± 0.15.
RELEKFANEFKVRRIKLGYTQTNVGEALAAVHGSEFSQTTCCRFENLQLSFKNACKLKAILSKWLEEAE [I41C] gave an abundance fitness of -0.444 ± 0.12.
RELEKFANEFKVRRIKLGYTQTNVGEALAAVHGSEFSQTTICRFENLQLSFKNAHKLKAILSKWLEEAE [C55H] showed an abundance fitness of -0.099 ± 0.18.
RELEKFANEFKVRRIKLGYTQTNVGEALAAVHTSEFSQTTICRFENLQLSFKNACKLKAILSKWLEEAE [G33T] showed an abundance fitness of -0.892 ± 0.14.
Work on RELEKFANEFKVRRIKLGYTQTNVGEALAAVHGSEFSQGTICRFENLQLSFKNACKLKAILSKWLEEAE [T39G] yielded an abundance fitness of -0.13 ± 0.044.
Work on RELEKFANEFKVRRIKLGYTQTNVGEALAAVHGSEFSQTTICRFENLQLSFKNACKIKAILSKWLEEAE [L57I] yielded an abundance fitness of 0.013 ± 0.06.
Work on RELEKFANEFKVRRIKLGYTQTNVGEALAAVHGSEFSQTTICRFENLQLSFKNACKLKAILSKWLEEAV [E69V] yielded an abundance fitness of -0.874 ± 0.29.
With RELEKFANEFKVRRIKLGYTQTNVGEALAAVHGSEFSQTTICRFENLQLSFKNACKLKAILSRWLEEAE [K63R] the abundance fitness was -0.152 ± 0.055.
For RELEKFANEFKVRRIKLGYTQTNVGEALAAVHGSEFSQTTICRFENLQLSFKNACKLKAILSKWLEENE [A68N], the abundance fitness was -0.24 ± 0.077.
Work on RELEHFANEFKVRRIKLGYTQTNVGEALAAVHGSEFSQTTICRFENLQLSFKNACKLKAILSKWLEEAE [K5H] yielded an abundance fitness of -0.135 ± 0.065.
Variant RELEKRANEFKVRRIKLGYTQTNVGEALAAVHGSEFSQTTICRFENLQLSFKNACKLKAILSKWLEEAE [F6R] has an abundance fitness of -0.844 ± 0.086.
For RELEKFANEFKVRRIKFGYTQTNVGEALAAVHGSEFSQTTICRFENLQLSFKNACKLKAILSKWLEEAE [L17F], the abundance fitness was -0.588 ± 0.094.
Work on RELEKFANEFKVRRIKLGYTQTNVGEALAAVHGSEFSQTTICRFENLQLSFKNACKLKAILSKWWEEAE [L65W] yielded an abundance fitness of -0.719 ± 0.12.
Work on RELEKFANEFKVRRIKLGYTQTNVGEALAAVHGSEFSQTTICRFENLQLSFKNACKLKAILNKWLEEAE [S62N] yielded an abundance fitness of -0.438 ± 0.088.
For RELEKFANEFKVRRIKLGYTQHNVGEALAAVHGSEFSQTTICRFENLQLSFKNACKLKAILSKWLEEAE [T22H], the abundance fitness was 0.041 ± 0.075.
With RELEKFANEFKVRRIKLGYTQTNVGEALAAVHGSEFSQTTIRRFENLQLSFKNACKLKAILSKWLEEAE [C42R] the abundance fitness was 0.142 ± 0.069.
RELEKFINEFKVRRIKLGYTQTNVGEALAAVHGSEFSQTTICRFENLQLSFKNACKLKAILSKWLEEAE [A7I] showed an abundance fitness of 0.162 ± 0.11.
RELEKFANEFKVRRIKLGYTQTNVGEALAAVHGSEFSQTTICRFENLQLSFKNACALKAILSKWLEEAE [K56A] showed an abundance fitness of -0.226 ± 0.064.
RELEKFANEFKVRRIKLGYTQTNVGEALAAVHGSEFSQTTICRFQNLQLSFKNACKLKAILSKWLEEAE [E45Q] showed an abundance fitness of -0.767 ± 0.23.
RELEKFANEFKVRRIKLGYTQTNVGEALAAVHGSEFSQTTICRFENLQLSFKNACKLKAILSSWLEEAE [K63S] gave an abundance fitness of -0.069 ± 0.046.
RELEKFANEFKVRRIKLGYTQTNVGEAMAAVHGSEFSQTTICRFENLQLSFKNACKLKAILSKWLEEAE [L28M] gave an abundance fitness of -0.824 ± 0.27.
In the case of RELEKFANEFKVRRIKLGYTQTNVGEALAAVHGSEFSQTTICRQENLQLSFKNACKLKAILSKWLEEAE [F44Q], the abundance fitness is reported as -0.885 ± 0.28.
Variant RELEKFANEFKVRRIKLGYTQTNVGEALAAVHGSEFSQTTIFRFENLQLSFKNACKLKAILSKWLEEAE [C42F] has an abundance fitness of -0.348 ± 0.081.
With RELEKFANEFKVRRIKLGYTQTNVGEALAAVHGSEFSQTTICRFENLQLSFKNACKLKAILSEWLEEAE [K63E] the abundance fitness was 0.077 ± 0.065.
For RELEKFANEFKVRRIKLGYTQTNVGEQLAAVHGSEFSQTTICRFENLQLSFKNACKLKAILSKWLEEAE [A27Q], the abundance fitness was 0.016 ± 0.093.
For RELEKFANDFKVRRIKLGYTQTNVGEALAAVHGSEFSQTTICRFENLQLSFKNACKLKAILSKWLEEAE [E9D], the abundance fitness was 0.031 ± 0.074.
For RELEKFANEFKVRRIKLGYTQTNVGEALAAVHGKEFSQTTICRFENLQLSFKNACKLKAILSKWLEEAE [S34K], the abundance fitness was 0.09 ± 0.066.
In the case of RELEKFANEFKVRRIKLGYTQTNVGEVLAAVHGSEFSQTTICRFENLQLSFKNACKLKAILSKWLEEAE [A27V], the abundance fitness is reported as -0.662 ± 0.17.
In the case of RELEKFANEFKVRRIKLGYTQTNVGEALAAVHGSEFSQTTICRFENLQLIFKNACKLKAILSKWLEEAE [S50I], the abundance fitness is reported as -0.378 ± 0.36.
Variant RELEKFANEFKVRRLKLGYTQTNVGEALAAVHGSEFSQTTICRFENLQLSFKNACKLKAILSKWLEEAE [I15L] has an abundance fitness of -0.196 ± 0.045.
